Laboratory results: PMC2879597 (Structure (London, England : 1993), 2010)

What was measured:
[1] = biological target: T1, IL-22/sIL-22R1 binary complex (UniProt Q9GZX6 34-179; Q8N6P7 16-228)
T1 sequence (looked up) 1: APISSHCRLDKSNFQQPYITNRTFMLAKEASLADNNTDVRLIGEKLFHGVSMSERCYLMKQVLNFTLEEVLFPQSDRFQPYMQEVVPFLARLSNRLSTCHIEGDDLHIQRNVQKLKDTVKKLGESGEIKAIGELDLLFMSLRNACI
T1 sequence (looked up) 2: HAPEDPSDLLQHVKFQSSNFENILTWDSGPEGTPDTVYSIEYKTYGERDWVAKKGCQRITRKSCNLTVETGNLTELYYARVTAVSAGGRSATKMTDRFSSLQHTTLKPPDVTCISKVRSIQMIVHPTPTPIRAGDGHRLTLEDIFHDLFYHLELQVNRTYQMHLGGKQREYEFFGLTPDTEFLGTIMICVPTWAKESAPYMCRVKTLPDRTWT

[2] = biological target: T2, cmvIL-10/sIL-10R1 binary complex (cytomegalovirus (CMV) | , UniProt P17150 20-175; Q13651 22-235); experiment: SPR
T2 sequence 1: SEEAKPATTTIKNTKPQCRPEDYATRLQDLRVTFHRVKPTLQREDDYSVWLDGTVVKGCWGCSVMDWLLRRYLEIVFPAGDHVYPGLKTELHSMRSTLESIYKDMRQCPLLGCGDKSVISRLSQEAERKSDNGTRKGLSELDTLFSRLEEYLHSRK
T2 sequence 2: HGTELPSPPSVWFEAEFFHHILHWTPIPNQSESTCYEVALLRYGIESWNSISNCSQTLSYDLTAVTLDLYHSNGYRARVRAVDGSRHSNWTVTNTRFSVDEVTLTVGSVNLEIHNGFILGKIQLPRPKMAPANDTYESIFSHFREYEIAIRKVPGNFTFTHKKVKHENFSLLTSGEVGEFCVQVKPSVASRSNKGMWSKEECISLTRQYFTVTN

[3] = biological target: hIL-10/sIL-10R1 binary complex (human | , UniProt P22301 19-178; Q13651 22-235); experiment: SPR
Chain of hIL-10/sIL-10R1 binary complex (P22301 19-178, one chain of several): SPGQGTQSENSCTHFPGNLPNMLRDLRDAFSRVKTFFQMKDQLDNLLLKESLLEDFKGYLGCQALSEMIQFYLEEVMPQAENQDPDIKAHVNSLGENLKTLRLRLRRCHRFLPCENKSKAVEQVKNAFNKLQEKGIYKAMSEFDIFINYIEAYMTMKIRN

[4] = biological target: T1, IL-22/sIL-22R1 binary complex; experiment: SPR

B1: sIL-10R2-NQ (soluble extracellular IL-10R2 chain with N49Q, N68Q, N102Q, N161Q) (receptor, human, UniProt Q08334 20-220, looked up)
chain: MVPPPENVRMNSVNFKNILQWESPAFAKGQLTFTAQYLSYRIFQDKCMQTTLTECDFSSLSKYGDHTLRVRAEFADEHSDWVQITFCPVDDTIIGPPGMQVEVLADSLHMRFLAPKIENEYETWTMKNVYNSWTYNVQYWKQGTDEKFQITPQYDFEVLRNLEPWTTYCVQVRGFLPDRNKAGEWSEPVCEQTTHDETVPS
**Q.** For B1, which Kd [1] is on record?
**A.** 14 µM

B2: glycosylated sIL-10R2 (receptor, human, UniProt Q08334 20-220, looked up)
chain: MVPPPENVRMNSVNFKNILQWESPAFAKGNLTFTAQYLSYRIFQDKCMNTTLTECDFSSLSKYGDHTLRVRAEFADEHSDWVNITFCPVDDTIIGPPGMQVEVLADSLHMRFLAPKIENEYETWTMKNVYNSWTYNVQYWKNGTDEKFQITPQYDFEVLRNLEPWTTYCVQVRGFLPDRNKAGEWSEPVCEQTTHDETVPS
modifications: N-linked glycosylation sites N49, N68, N102 and N161 (glycosylated)
**Q.** For B2, which Kd [1] is on record?
**A.** 7 µM

B3: sIL-10R2 Y56A (on sIL-10R2-NQ) (receptor, human, UniProt Q08334 20-220, looked up)
chain: MVPPPENVRMNSVNFKNILQWESPAFAKGQLTFTAQALSYRIFQDKCMQTTLTECDFSSLSKYGDHTLRVRAEFADEHSDWVQITFCPVDDTIIGPPGMQVEVLADSLHMRFLAPKIENEYETWTMKNVYNSWTYNVQYWKQGTDEKFQITPQYDFEVLRNLEPWTTYCVQVRGFLPDRNKAGEWSEPVCEQTTHDETVPS
**Q.** For B3, which “percent of wild-type binding (normalized RU)” value (“percent … (normalized RU)” below) [2] is on record?
**A.** ~20 % of WT

**Q.** What about the “percent … (normalized RU)” value [3] of the same binder?
**A.** ~20 % of WT

B4: sIL-10R2 Y59A (on sIL-10R2-NQ) (receptor, human, UniProt Q08334 20-220, looked up)
chain: MVPPPENVRMNSVNFKNILQWESPAFAKGQLTFTAQYLSARIFQDKCMQTTLTECDFSSLSKYGDHTLRVRAEFADEHSDWVQITFCPVDDTIIGPPGMQVEVLADSLHMRFLAPKIENEYETWTMKNVYNSWTYNVQYWKQGTDEKFQITPQYDFEVLRNLEPWTTYCVQVRGFLPDRNKAGEWSEPVCEQTTHDETVPS
**Q.** Which results are given for B4?
**A.** percent of wild-type binding (normalized RU) [4]: ~50 % of WT; percent of wild-type binding (normalized RU) [2]: ~50 % of WT; percent of wild-type binding (normalized RU) [3]: ~50 % of WT

B5: sIL-10R2 Y140A (on sIL-10R2-NQ) (receptor, human, UniProt Q08334 20-220, looked up)
chain: MVPPPENVRMNSVNFKNILQWESPAFAKGQLTFTAQYLSYRIFQDKCMQTTLTECDFSSLSKYGDHTLRVRAEFADEHSDWVQITFCPVDDTIIGPPGMQVEVLADSLHMRFLAPKIENEAETWTMKNVYNSWTYNVQYWKQGTDEKFQITPQYDFEVLRNLEPWTTYCVQVRGFLPDRNKAGEWSEPVCEQTTHDETVPS
**Q.** With B5 as the binder, how does the “percent … (normalized RU)” value [2] read?
**A.** ~20 % of WT

**Q.** And the “percent … (normalized RU)” value [3]?
**A.** ~20 % of WT

B6: sIL-10R2 Y173A (on sIL-10R2-NQ) (receptor, human, UniProt Q08334 20-220, looked up)
chain: MVPPPENVRMNSVNFKNILQWESPAFAKGQLTFTAQYLSYRIFQDKCMQTTLTECDFSSLSKYGDHTLRVRAEFADEHSDWVQITFCPVDDTIIGPPGMQVEVLADSLHMRFLAPKIENEYETWTMKNVYNSWTYNVQYWKQGTDEKFQITPQADFEVLRNLEPWTTYCVQVRGFLPDRNKAGEWSEPVCEQTTHDETVPS
**Q.** B6 was tested. Which “percent … (normalized RU)” value [4] did it give?
**A.** 65 % of WT
